Test results as given in the Human Domainome abundance scans (Beltran et al. 2025).
± gives the uncertainty stated by the source.

B1: SWI/SNF complex subunit SMARCC1, residues 620 to 663; numbered along this chain, Q92922 (parent)
chain: GREWTEQETLLLLEALEMYKDDWNKVSEHVGSRTQDECILHFLR

Variants of: B1
Assay: abundance fitness (aPCA) (normalised: wild type 0, dead -1); higher = more abundant; growth selection in yeast, the domain comes from the species named
Details: Homo sapiens

Row | Variant | abundance fitness
1 | GREWTEQETLLLLEALEMYKDDWNKVSEHVGSRTQDEHILHFLR [C38H] | -0.774 ± 0.17
2 | GREWTEQETLLLLEALEMYKDDWNKVSEHVGSRTQDEWILHFLR [C38W] | -0.79 ± 0.31
3 | GREWTEQETLLLLEALEMYKDDWNKVSEHVGSRTQDEVILHFLR [C38V] | -0.348 ± 0.089
4 | GREWTEQETLLLLEALEMYKDDWNKVSEHVGSRTQDEQILHFLR [C38Q] | -0.514 ± 0.16
5 | GREWTEQETLLLLEALEMYKDDWNKVSEHVGSRTQDESILHFLR [C38S] | -0.624 ± 0.087
6 | GREWTEQETLLLLEALEMYKDDWNKVSEHVGSRTQDELILHFLR [C38L] | -0.5 ± 0.11
7 | GREWTEQETLLLLEALEMYKDDWNKVSEHVGSRTQDETILHFLR [C38T] | -0.4 ± 0.12
8 | GREWTEQETLLLLEALEMYKDDWNKVSEHVGSRTQDERILHFLR [C38R] | -0.367 ± 0.13
9 | GREWTEQETLLLLEALEMYKDDWNKVSEHVGSRTQDEDILHFLR [C38D] | -0.296 ± 0.17
10 | GREWTEQETLLLLEALEMYKDDWNKVSEHVGSRTQDEPILHFLR [C38P] | -0.73 ± 0.12
11 | GREWTEQETLLLLEALEMYKDDWNKVSEHVGSRTQDEMILHFLR [C38M] | -1.09 ± 0.34
12 | GREWTEQETLLLLEALEMYKDDWNKVSEHVGSRTQDEIILHFLR [C38I] | -0.361 ± 0.076
13 | GREWTEQETLLLLEALEMYKDDWNKVSEHVGSRTQDEAILHFLR [C38A] | -0.572 ± 0.11
14 | GREWTEQETLLLLEALEMYKDDWNKVSEHVGSRTQDEGILHFLR [C38G] | -0.778 ± 0.21
15 | GREWTEQETLLLLEALEMYKDDWNKVSEHVGSRTQDEYILHFLR [C38Y] | -0.903 ± 0.33
16 | GREWTEQETLLLLEALEMYKDDWNKVSEHVGSRTQDECILHFER [L43E] | 0.582 ± 0.07
17 | GREWTEQETLLLLEALEMYKDDWNKVSEHVGSRTQDECILHFRR [L43R] | 0.507 ± 0.049
18 | GREWTEQETLLLLEALEMYKDDWNKVSEHVGSRTQDECILHFFR [L43F] | 0.149 ± 0.07
19 | GREWTEQETLLLLEALEMYKDDWNKVSEHVGSRTQDECILHFHR [L43H] | 0.514 ± 0.077
20 | GREWTEQETLLLLEALEMYKDDWNKVSEHVGSRTQDECILHFSR [L43S] | 0.338 ± 0.058

Row | Variant | abundance fitness
21 | GREWTEQETLLLLEALEMYKDDWNKVSEHVGSRTQDECILHFPR [L43P] | 0.302 ± 0.065
22 | GREWTEQETLLLLEALEMYKDDWNKVSEHVGSRTQDECILHFCR [L43C] | 0.187 ± 0.075
23 | GREWTEQETLLLLEALEMYKDDWNKVSEHVGSRTQDECILHFIR [L43I] | 0.098 ± 0.062
24 | GREWTEQETLLLLEALEMYKDDWNKVSEHVGSRTQDECILHFGR [L43G] | 0.342 ± 0.094
25 | GREWTEQETLLLLEALEMYKDDWNKVSEHVGSRTQDECILHFDR [L43D] | 0.587 ± 0.069
26 | GREWTEQETLLLLEALEMYKDDWNKVSEHVGSRTQDECILHFAR [L43A] | 0.286 ± 0.069
27 | GREWTEQETLLLLEALEMYKDDWNKVSEHVGSRTQDECILHFKR [L43K] | 0.554 ± 0.07
28 | GREWTEQETLLLLEALEMYKDDWNKVSEHVGSRTQDECILHFMR [L43M] | 0.184 ± 0.11
29 | GREWTEQETLLLLEALEMYKDDWNKVSEHVGSRTQDECILHFQR [L43Q] | 0.645 ± 0.076
30 | GREWTEQETLLLLEALEMYKDDWNKVSEHVGSRTQDECILRFLR [H41R] | -0.019 ± 0.074
31 | GREWTEQETLLLLEALEMYKDDWNKVSEHVGSRTQDECILYFLR [H41Y] | 0.184 ± 0.098
32 | GREWTEQETLLLLEALEMYKDDWNKVSEHVGSRTQDECILWFLR [H41W] | -0.142 ± 0.11
33 | GREWTEQETLLLLEALEMYKDDWNKVSEHVGSRTQDECILAFLR [H41A] | 0.064 ± 0.059
34 | GREWTEQETLLLLEALEMYKDDWNKVSEHVGSRTQDECILSFLR [H41S] | -0.357 ± 0.071
35 | GREWTEQETLLLLEALEMYKDDWNKVSEHVGSRTQDECILTFLR [H41T] | -0.161 ± 0.059
36 | GREWTEQETLLLLEALEMYKDDWNKVSEHVGSRTQDECILMFLR [H41M] | -0.187 ± 0.12
37 | GREWTEQETLLLLEALEMYKDDWNKVSEHVGSRTQDECILNFLR [H41N] | 0.097 ± 0.12
38 | GREWTEQETLLLLEALEMYKDDWNKVSEHVGSRTQDECILKFLR [H41K] | 0.223 ± 0.11
39 | GREWTEQETLLLLEALEMYKDDWNKVSEHVGSRTQDECILLFLR [H41L] | -0.247 ± 0.06
40 | GREWTEQETLLLLEALEMYKDDWNKVSEHVGSRTQDECILQFLR [H41Q] | -0.21 ± 0.095

Row | Variant | abundance fitness
41 | GREWTEQETLLLLEALEMYKDDWNKVSEHVGSRTQDECILFFLR [H41F] | -0.189 ± 0.15
42 | GREWTEQETLLLLEALEMYKDDWNKVSEHVGSRTQDECILCFLR [H41C] | -0.089 ± 0.14
43 | GREWTEQETLLLLEALEMYKDDWNKVSEHVGSRTQDECILGFLR [H41G] | -0.407 ± 0.092
44 | GREWTEQETLLLLEALEMYKDDWNKVSEHVGSRTQDECILIFLR [H41I] | -0.537 ± 0.15
45 | GREWTEQETLLLLEALEMYKDDWNKVSEHVGSRTQDECILEFLR [H41E] | -0.178 ± 0.11
46 | GREWTEQETLLLLEALEMYKDDWNKVSEHVGSRTQRECILHFLR [D36R] | -0.017 ± 0.054
47 | GREWTEQETLLLLEALEMYKDDWNKVSEHVGSRTQTECILHFLR [D36T] | -0.042 ± 0.077
48 | GREWTEQETLLLLEALEMYKDDWNKVSEHVGSRTQSECILHFLR [D36S] | 0.021 ± 0.056
49 | GREWTEQETLLLLEALEMYKDDWNKVSEHVGSRTQWECILHFLR [D36W] | -0.299 ± 0.14
50 | GREWTEQETLLLLEALEMYKDDWNKVSEHVGSRTQVECILHFLR [D36V] | -0.354 ± 0.075
51 | GREWTEQETLLLLEALEMYKDDWNKVSEHVGSRTQPECILHFLR [D36P] | -0.083 ± 0.066
52 | GREWTEQETLLLLEALEMYKDDWNKVSEHVGSRTQQECILHFLR [D36Q] | 0.041 ± 0.11
53 | GREWTEQETLLLLEALEMYKDDWNKVSEHVGSRTQYECILHFLR [D36Y] | -0.374 ± 0.12
54 | GREWTEQETLLLLEALEMYKDDWNKVSEHVGSRTQDECALHFLR [I39A] | 0.178 ± 0.066
55 | GREWTEQETLLLLEALEMYKDDWNKVSEHVGSRTQDECQLHFLR [I39Q] | 0.238 ± 0.062
56 | GREWTEQETLLLLEALEMYKDDWNKVSEHVGSRTQDECHLHFLR [I39H] | 0.456 ± 0.053
57 | GREWTEQETLLLLEALEMYKDDWNKVSEHVGSRTQDECSLHFLR [I39S] | 0.32 ± 0.047
58 | GREWTEQETLLLLEALEMYKDDWNKVSEHVGSRTQDECMLHFLR [I39M] | 0.217 ± 0.08
